Data on 1 molecule can be found in patent publication US12383572B2, “Administration of an anti-activin-a compound to a subject” (AMGEN INC., priority 2013, dated 2025).

“Also recorded” adds a separate entry of the source.

The test system of the test is ovarian tumors in Inhα KO mice. The experiment in a line: sActRIIB single dose, withdrawal and re-administration in female Inhα KO mice: ovarian tumor weight. The format is in vivo, mouse. On the procedure:
Eleven-to-fourteen-week-old female Inhα KO mice with body weight from 19.41 to 26.82 grams were subcutaneously (SC) injected with either 30 mg/kg sActRIIB or PBS. Age-matched WT littermate control mice were injected with PBS and served as baseline controls. The study ended by necropsy 2 weeks after injections. Two cohorts of mice were used in the study. Eleven-to-thirteen-week-old female Inhα KO mice with body weight from 17.7 to 27.4 grams were SC injected with either 30 mg/kg sAcLRIIB or PBS. Age-matched WT littermate control mice were injected with PBS and served as baseline controls. The withdrawal lasted for 8 weeks. At the end of the withdrawal, the sActRIIB treated mice were divided by balanced body weight into 2 groups (Group 3 and Group 4).
Group 2 and Group 3 were euthanized to examine the ovarian tumors. Group 4 received another dose of 30 mg/kg sActRIIB and the mice were euthanized together with the WT mice 4 weeks later (total 12 weeks). Mouse body weights were recorded once per week up to 12 weeks. For necropsy, mice were euthanized in a CO2 chamber. Normal ovaries in WT mice and ovarian tumors in Inhα KO mice were collected and weighed. All results were expressed as the mean±standard error of the mean (SEM). Statistical significance of difference between groups was analyzed using Student's 2-tailed t-test on MS Excel 5.0 software. The Chi-Square test (GraphPad Software Inc, San Diego, CA) was used to examine the differences in animal survival time. Statistical significance between groups is represented by p<0.05 values.

B1: sActRIIB: extracellular domain of human activin type-2B receptor fused to IgG2 Fc; full length SEQ ID NO: 21 (Table 9) (protein, listed as Homo sapiens)
chain: ETRWCIYYNANWELERTNQSGLERCEGEQDKRLHCYASWRNSSGTIELVKKGCWLDDFNCYDRQECVATEENPQVYFCCCEGNFCNERFTHLPEAGGPEVTYEPPPTAPTGGGGSVECPPCPAPPVAGPSVFLFPPKPKDTLMISRTPEVTCVVVDVSHEDPEVQFNWYVDGVEVHNAKTKPREEQFNSTFRVVSVLTVVHQDWLNGKEYKCKVSNKGLPAPIEKTISKTKGQPREPQVYTLPPSREEMTKNQVSLTCLVKGFYPSDIAVEWESNGQPENNYKTTPPMLDSDGSFFLYSKLTVDKSRWQQGNVFSCSVMHEALHNHYTQKSLSLSPGK
With B1, for the setting “30 mg/kg SC”, the “ovarian tumor weight at 8 weeks after withdrawal from the initial single dose” value is reported as “grown in size similar to that of the PBS-treated Inhα KO mice” and the “ovarian tumor weight two weeks after a single dose” value is on record as “reduced to the WT control level”. Besides, the “ovarian tumor mass at week 12 (4 weeks after re-administration)” value (re-administration 30 mg/kg at week 8, 30 mg/kg) is on record as “effectively reduced the tumor mass; also recorded: effectively regressed the ovarian tumor mass to the size of the WT control group”.
